For the experiment, the target named is NLGN-1ΔAB-Fc (neuroligin-1 lacking splice inserts A and B, residues Q46-S693, with a C-terminal Fc domain) (UniProt Q62765). Kind of experiment: SPR. Background: SPR reads the build-up and loss of mass on a sensor chip optically.

What is called Kd is the concentration at which binding is half-saturated. Read a low Kd as higher affinity. Consider “β-NRXN-1 (ΔSS#4), soluble recombinant (domain or fragment)”, for which the Kd was 30 nM.
